Source: patent US12630600B2 (MEDIMMUNE LIMITED, priority 2022, dated 2026)
Starred links: 1 amine or outer side, 2 acyl side, 3 side chain; linkers in the order of their positions; H or OH if unused. Non-standard residues stand in square brackets, D forms with d. Groups on a side chain read outwards from the residue. No end group written: not given here. *: point of attachment. C20 diacid = O=C(O)CCCCCCCCCCCCCCCCCCC(=O)*; C18 diacid = O=C(O)CCCCCCCCCCCCCCCCC(=O)*; γGlu = O=C(O)[C@H](CCC(=O)[*:2])N[*:1]; αMeF = C[C@](N)(Cc1ccccc1)C(=O)O; (PEG)2 = polyethylene glycol 2; PEG4 = NCCOCCOCCOCCOCCC(=O)O; AEEA = NCCOCCOCC(=O)O; Aib = CC(C)(N)C(=O)O

B1: Peptide 262 (peptide)
peptide: H[Aib]HGS[αMeF]TSDVSK[αMeF]LDSRAAK([AEEA-γGlu-C18 diacid])D[αMeF]VQ[Aib]IANT-NH2
B2: Peptide 263 (peptide)
peptide: H[Aib]HGS[αMeF]TSDVSK[αMeF]LDSRAAK([PEG4-γGlu-γGlu-C18 diacid])D[αMeF]VQ[Aib]IANT-NH2
B3: Peptide 261 (peptide)
peptide: H[Aib]HGS[αMeF]TSDVSK[αMeF]LDSRAAK([PEG4-γGlu-C18 diacid])D[αMeF]VQ[Aib]IANT-NH2
modifications: N-terminus assumed
SMILES: CC[C@H](C)[C@H](NC(=O)C(C)(C)NC(=O)[C@H](CCC(N)=O)NC(=O)[C@@H](NC(=O)[C@](C)(Cc1ccccc1)NC(=O)[C@H](CC(=O)O)NC(=O)[C@H](CCCCNC(=O)CCOCCOCCOCCOCCNC(=O)CC[C@H](NC(=O)CCCCCCCCCCCCCCCCC(=O)O)C(=O)O)NC(=O)[C@H](C)NC(=O)[C@H](C)NC(=O)[C@H](CCCNC(=N)N)NC(=O)[C@H](CO)NC(=O)[C@H](CC(=O)O)NC(=O)[C@H](CC(C)C)NC(=O)[C@](C)(Cc1ccccc1)NC(=O)[C@H](CCCCN)NC(=O)[C@H](CO)NC(=O)[C@@H](NC(=O)[C@H](CC(=O)O)NC(=O)[C@H](CO)NC(=O)[C@@H](NC(=O)[C@](C)(Cc1ccccc1)NC(=O)[C@H](CO)NC(=O)CNC(=O)[C@H](Cc1c[nH]cn1)NC(=O)C(C)(C)NC(=O)[C@@H](N)Cc1c[nH]cn1)[C@@H](C)O)C(C)C)C(C)C)C(=O)N[C@@H](C)C(=O)N[C@@H](CC(N)=O)C(=O)N[C@H](C(N)=O)[C@@H](C)O
B4: Peptide 258 (peptide)
peptide: H[Aib]HGS[αMeF]TSDVSK[αMeF]LDSRAAK([(PEG)2-(PEG)2-γGlu-γGlu-C18 diacid])D[αMeF]VQ[Aib]IANT-NH2
B5: Peptide 253 (peptide)
peptide: H[Aib]HGS[αMeF]TSDVSK[αMeF]LDSR[Aib]AK([AEEA-γGlu-C18 diacid])DFVESIANT-NH2
B6: Peptide 246 (peptide)
peptide: H[Aib]HGS[αMeF]TSDVSK[αMeF]LDSRAAK([AEEA-AEEA-γGlu-γGlu-C20 diacid])D[αMeF]VESIANT-NH2
modifications: N-terminus assumed
SMILES: CC[C@H](C)[C@H](NC(=O)[C@H](CO)NC(=O)[C@H](CCC(=O)O)NC(=O)[C@@H](NC(=O)[C@](C)(Cc1ccccc1)NC(=O)[C@H](CC(=O)O)NC(=O)[C@H](CCCCNC(=O)COCCOCCNC(=O)COCCOCCNC(=O)CC[C@H](NC(=O)CC[C@H](NC(=O)CCCCCCCCCCCCCCCCCCC(=O)O)C(=O)O)C(=O)O)NC(=O)[C@H](C)NC(=O)[C@H](C)NC(=O)[C@H](CCCNC(=N)N)NC(=O)[C@H](CO)NC(=O)[C@H](CC(=O)O)NC(=O)[C@H](CC(C)C)NC(=O)[C@](C)(Cc1ccccc1)NC(=O)[C@H](CCCCN)NC(=O)[C@H](CO)NC(=O)[C@@H](NC(=O)[C@H](CC(=O)O)NC(=O)[C@H](CO)NC(=O)[C@@H](NC(=O)[C@](C)(Cc1ccccc1)NC(=O)[C@H](CO)NC(=O)CNC(=O)[C@H](Cc1c[nH]cn1)NC(=O)C(C)(C)NC(=O)[C@@H](N)Cc1c[nH]cn1)[C@@H](C)O)C(C)C)C(C)C)C(=O)N[C@@H](C)C(=O)N[C@@H](CC(N)=O)C(=O)N[C@H](C(N)=O)[C@@H](C)O
B7: Peptide 267 (peptide)
peptide: H[Aib]HGS[αMeF]TSDVSK[αMeF]LDSRAAK([PEG4-γGlu-C20 diacid])D[αMeF]VQ[Aib]IANT-NH2
B8: Peptide 244 (peptide)
peptide: H[Aib]HGS[αMeF]TSDVSK[αMeF]LDSRAAK([AEEA-AEEA-γGlu-γGlu-C20 diacid])D[αMeF]VQSIANT-NH2
modifications: N-terminus assumed
SMILES: CC[C@H](C)[C@H](NC(=O)[C@H](CO)NC(=O)[C@H](CCC(N)=O)NC(=O)[C@@H](NC(=O)[C@](C)(Cc1ccccc1)NC(=O)[C@H](CC(=O)O)NC(=O)[C@H](CCCCNC(=O)COCCOCCNC(=O)COCCOCCNC(=O)CC[C@H](NC(=O)CC[C@H](NC(=O)CCCCCCCCCCCCCCCCCCC(=O)O)C(=O)O)C(=O)O)NC(=O)[C@H](C)NC(=O)[C@H](C)NC(=O)[C@H](CCCNC(=N)N)NC(=O)[C@H](CO)NC(=O)[C@H](CC(=O)O)NC(=O)[C@H](CC(C)C)NC(=O)[C@](C)(Cc1ccccc1)NC(=O)[C@H](CCCCN)NC(=O)[C@H](CO)NC(=O)[C@@H](NC(=O)[C@H](CC(=O)O)NC(=O)[C@H](CO)NC(=O)[C@@H](NC(=O)[C@](C)(Cc1ccccc1)NC(=O)[C@H](CO)NC(=O)CNC(=O)[C@H](Cc1c[nH]cn1)NC(=O)C(C)(C)NC(=O)[C@@H](N)Cc1c[nH]cn1)[C@@H](C)O)C(C)C)C(C)C)C(=O)N[C@@H](C)C(=O)N[C@@H](CC(N)=O)C(=O)N[C@H](C(N)=O)[C@@H](C)O
B9: Peptide 234 (peptide)
peptide: H[Aib]HGS[αMeF]TSDVSK[αMeF]LDSRAAK([AEEA-AEEA-γGlu-γGlu-C20 diacid])D[αMeF]VE[Aib]IANT-NH2
modifications: N-terminus assumed
SMILES: CC[C@H](C)[C@H](NC(=O)C(C)(C)NC(=O)[C@H](CCC(=O)O)NC(=O)[C@@H](NC(=O)[C@](C)(Cc1ccccc1)NC(=O)[C@H](CC(=O)O)NC(=O)[C@H](CCCCNC(=O)COCCOCCNC(=O)COCCOCCNC(=O)CC[C@H](NC(=O)CC[C@H](NC(=O)CCCCCCCCCCCCCCCCCCC(=O)O)C(=O)O)C(=O)O)NC(=O)[C@H](C)NC(=O)[C@H](C)NC(=O)[C@H](CCCNC(=N)N)NC(=O)[C@H](CO)NC(=O)[C@H](CC(=O)O)NC(=O)[C@H](CC(C)C)NC(=O)[C@](C)(Cc1ccccc1)NC(=O)[C@H](CCCCN)NC(=O)[C@H](CO)NC(=O)[C@@H](NC(=O)[C@H](CC(=O)O)NC(=O)[C@H](CO)NC(=O)[C@@H](NC(=O)[C@](C)(Cc1ccccc1)NC(=O)[C@H](CO)NC(=O)CNC(=O)[C@H](Cc1c[nH]cn1)NC(=O)C(C)(C)NC(=O)[C@@H](N)Cc1c[nH]cn1)[C@@H](C)O)C(C)C)C(C)C)C(=O)N[C@@H](C)C(=O)N[C@@H](CC(N)=O)C(=O)N[C@H](C(N)=O)[C@@H](C)O
B10: Peptide 260 (peptide)
peptide: H[Aib]HGS[αMeF]TSDVSK[αMeF]LDSRAAK([AEEA-γGlu-AEEA-γGlu-C18 diacid])D[αMeF]VQ[Aib]IANT-NH2
B11: Peptide 256 (peptide)
peptide: H[Aib]HGS[αMeF]TSDVSK[αMeF]LDSQAAK([AEEA-AEEA-γGlu-γGlu-C20 diacid])D[αMeF]VQ[Aib]IANT-NH2
B12: Peptide 251 (peptide)
peptide: H[Aib]HGS[αMeF]TSDVSK[αMeF]LDSR[Aib]AK([AEEA-AEEA-γGlu-C18 diacid])DFVESIANT-NH2
B13: Peptide 254 (peptide)
peptide: H[Aib]HGS[αMeF]TSDVSK[αMeF]LDSR[Aib]AK([γGlu-C18 diacid])DFVESIANT-NH2
B14: Peptide 259 (peptide)
peptide: H[Aib]HGS[αMeF]TSDVSK[αMeF]LDSRAAK([AEEA-γGlu-AEEA-C18 diacid])D[αMeF]VQ[Aib]IANT-NH2
B15: Peptide 232 (peptide)
peptide: H[Aib]HGS[αMeF]TSDVSK[αMeF]LDSRAAKD[αMeF]VQ[Aib]IANT-NH2
modifications: not fully specified (residue 20)
B16: Peptide 268 (peptide)
peptide: H[Aib]HGS[αMeF]TSDVSK[αMeF]LDSRAAK([AEEA-γGlu-C20 diacid])D[αMeF]VQ[Aib]IANT-NH2
modifications: N-terminus assumed
SMILES: CC[C@H](C)[C@H](NC(=O)C(C)(C)NC(=O)[C@H](CCC(N)=O)NC(=O)[C@@H](NC(=O)[C@](C)(Cc1ccccc1)NC(=O)[C@H](CC(=O)O)NC(=O)[C@H](CCCCNC(=O)COCCOCCNC(=O)CC[C@H](NC(=O)CCCCCCCCCCCCCCCCCCC(=O)O)C(=O)O)NC(=O)[C@H](C)NC(=O)[C@H](C)NC(=O)[C@H](CCCNC(=N)N)NC(=O)[C@H](CO)NC(=O)[C@H](CC(=O)O)NC(=O)[C@H](CC(C)C)NC(=O)[C@](C)(Cc1ccccc1)NC(=O)[C@H](CCCCN)NC(=O)[C@H](CO)NC(=O)[C@@H](NC(=O)[C@H](CC(=O)O)NC(=O)[C@H](CO)NC(=O)[C@@H](NC(=O)[C@](C)(Cc1ccccc1)NC(=O)[C@H](CO)NC(=O)CNC(=O)[C@H](Cc1c[nH]cn1)NC(=O)C(C)(C)NC(=O)[C@@H](N)Cc1c[nH]cn1)[C@@H](C)O)C(C)C)C(C)C)C(=O)N[C@@H](C)C(=O)N[C@@H](CC(N)=O)C(=O)N[C@H](C(N)=O)[C@@H](C)O
B17: Peptide 265 (peptide)
peptide: H[Aib]HGS[αMeF]TSDVSK[αMeF]LDSRAAK([AEEA-γGlu-AEEA-C20 diacid])D[αMeF]VQ[Aib]IANT-NH2
B18: Peptide 264 (peptide)
peptide: H[Aib]HGS[αMeF]TSDVSK[αMeF]LDSRAAK([(PEG)2-(PEG)2-γGlu-γGlu-C20 diacid])D[αMeF]VQ[Aib]IANT-NH2
B19: Peptide 266 (peptide)
peptide: H[Aib]HGS[αMeF]TSDVSK[αMeF]LDSRAAK([AEEA-γGlu-AEEA-γGlu-C20 diacid])D[αMeF]VQ[Aib]IANT-NH2

Biological target: human GLP-1 receptor (human, UniProt P43220)
Test: cell-based or functional assay

hGLP-1R EC50 (pM)	Binder
13	B1
25.4	B2
16.2	B3
34	B4
75.5	B5
320	B6
65.6	B7
143	B8
68	B9
33.1	B10
346	B11
79.8	B12
102	B13
19.1	B14
110	B15
39.5	B16
71.2	B17
69.5	B18
66.5	B19

Biological target: human glucagon receptor (human, UniProt P47871)
Test: cell-based or functional assay

hGluc-R EC50 (pM)	Binder
11.7	B1
64.6	B2
29.4	B3
93.1	B4
53.1	B5
557	B6
128	B7
420	B8
1290	B9
76.9	B10
1310	B11
248	B12
125	B13
34.8	B14
1020	B15
29.3	B16
131	B17
297	B18
293	B19
